# Test results published in patent US20170165373A1.
# Target: human BCMA (huBCMA), full length, on cells (human) (UniProt Q02223)
# Test: cell-based or functional assay
# Chain of human BCMA (huBCMA), full length, on cells (human) (Q02223 whole entry N81S): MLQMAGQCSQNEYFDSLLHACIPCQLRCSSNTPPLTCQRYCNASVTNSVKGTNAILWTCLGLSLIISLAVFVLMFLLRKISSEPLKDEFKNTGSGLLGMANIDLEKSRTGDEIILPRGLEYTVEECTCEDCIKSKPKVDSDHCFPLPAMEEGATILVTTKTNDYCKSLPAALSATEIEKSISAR
binder,measurement,value
29C12-MCC-DM1 (antibody drug conjugate) (protein) VH: EVQLLESGGALVQPGGSLRLSCAASGFTFSSYAMNWVRQAPGKGLEWVSAISVGGDTYYADSVKGRFTISRDNSKNTLYLQMNSLRAEDTAVYYCAKDQVTMVRGVWYYYGLDVWGQGTTVTVSS VL: DIVMIQSPLSLPVTPGEPASISCRSSQSLLHSNGNNYLDWYLQKPGQSPHLLISLGSNRTSGVPDRFSGSGSGTDFTLKISRVEAEDVGVYYCMQALQPPRRFGQGTKLEIKR,"H929 cell growth inhibition IC50 (CellTiter-Glo, 96 h)",390 pM
